Reference: the supplement of paper PMC6755084

B1: F1*; the commonest letter at each place (parent)
chain: GAGACCGCAACTGAAAAGTTGTTATCACTTGTCGTAAGACACTTTGGATGGGTTGAAGTTCTGCACGTAGAAGCAAAAGGC

Variants of: B1
Experiment: fraction ligated after 30 min (ligated reads / total reads); higher = more ligase activity
Conditions: with F1*sub RNA substrate (template-directed ligation), 42 °C
Experimental: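 Chip-synthesised pool of F1* ligase ribozyme variants (all single and double substitutions, single, double and triple deletions in the catalytic core and GAA bulge, plus designed variants) was transcribed with T7 and reacted as a pool with excess substrate F1*sub for 30 min at 42 C in 50 mM EPPS pH 8.5, 25 mM MgCl2. Ligated and unligated bands were separated by PAGE, barcoded by RT and deep sequenced; fraction ligated = ligated reads / total reads per variant, relative activity = FL / FL of wild type (0.826). Sequences are the DNA template of the ribozyme.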

Row | Variant | fraction ligated
1 | GAGACCGCAACTGAAAAGTTGTTATCACTTGTGGTAAGACACTTTGAATGGGTTGAAGTTCTGCACGTAGAAGCAAAAGGC [C33G G47A] | 0.791
2 | GAGACCGCAACTGAAAAGTTGTTATCACTTGTCATAAGACACTTTGTATGGGTTGAAGTTCTGCACGTAGAAGCAAAAGGC [G34A G47T] | 0.373
3 | GAGACCGCAACTGAAAAGTTGTTATCACTTGTCGTATGCCACTTTGGATGGGTTGAAGTTCTGCACGTAGAAGCAAAAGGC [A37T A39C] | 0.785
4 | GAGACCGCAACTGAAAAGTTGTTATCACTTATCGTAAGACACTTTGGATGGGTTCAAGTTCTGCACGTAGAAGCAAAAGGC [G31A G55C] | 0.205
5 | GAGACCGCAACTGAAAAGTTGTTAGCACTTGTCGTAAGACACTGTGGATGGGTTGAAGTTCTGCACGTAGAAGCAAAAGGC [T25G T44G] | 0.474
6 | GAGACCGCAACTGAAAAGTTGTTATCACTTGTCGTAAGAAACTTTGGATAGGTTGAAGTTCTGCACGTAGAAGCAAAAGGC [C40A G50A] | 0.212
7 | GAGACCGCAACTGAAAAGTTGTGATCACTTGTCGTAAGACACTTTGGATAGGTTGAAGTTCTGCACGTAGAAGCAAAAGGC [T23G G50A] | 0.633
8 | GAGACCGCAACTGAAAAGTTGTGATCATTTGTCGTAAGACACTTTGGATGGGTTGAAGTTCTGCACGTAGAAGCAAAAGGC [T23G C28T] | 0.782
9 | GAGACCGCAACTGAAAAGTTGTTATCACTTGTCGTGAGACACCTTGGATGGGTTGAAGTTCTGCACGTAGAAGCAAAAGGC [A36G T43C] | 0.81
10 | GAGACCGCAACTGAAAAGTTGTTATCACTTGTCGTAAGACAATTGGGATGGGTTGAAGTTCTGCACGTAGAAGCAAAAGGC [C42A T45G] | 0.282
11 | GAGACCGCAACTGAAAAGTTGTTATCACTGGTCGTAGGACACTTTGGATGGGTTGAAGTTCTGCACGTAGAAGCAAAAGGC [T30G A37G] | 0.852
12 | GAGACCGCAACTGAAAAGTTGTTATCACTTGTCGTAAGACACGTTGGATCGGTTGAAGTTCTGCACGTAGAAGCAAAAGGC [T43G G50C] | 0.273
13 | GAGACCGCAACTGAAAAGTTGTTATCACTTGTCGTAAGACACTTTGCAAGGGTTGAAGTTCTGCACGTAGAAGCAAAAGGC [G47C T49A] | 0.0759
14 | GAGACCGCAACTGAAAAGTTGTTATCACTTGTCGTAAGACACTTTGGGTGGGTTGCAGTTCTGCACGTAGAAGCAAAAGGC [A48G A56C] | 0.259
15 | GAGACCGCAACTGAAAAGTTGTTATCACTTGTCGTAAGACACTTCGGACGGGTTGAAGTTCTGCACGTAGAAGCAAAAGGC [T45C T49C] | 0.0485
16 | GAGACCGCAACTGAAAAGTTGTTATCACTGGTCGTAAGAGACTTTGGATGGGTTGAAGTTCTGCACGTAGAAGCAAAAGGC [T30G C40G] | 0.81
17 | GAGACCGCAACTGAAAAGTTGTTATCACTTGTCGTAAGACACTTTCGATGGGTTGCAGTTCTGCACGTAGAAGCAAAAGGC [G46C A56C] | 0.324

Row | Variant | fraction ligated
18 | GAGACCGCAACTGAAAAGTTGTTATCACTTGTCGTAAGACAGTTTGGCTGGGTTGAAGTTCTGCACGTAGAAGCAAAAGGC [C42G A48C] | 0.765
19 | GAGACCGCAACTGAAAAGTTGTTCTCACTTGTCGTAAGAGACTTTGGATGGGTTGAAGTTCTGCACGTAGAAGCAAAAGGC [A24C C40G] | 0.348
20 | GAGACCGCAACTGAAAAGTTGTTATCACTTGTCGTAAGACTCTTAGGATGGGTTGAAGTTCTGCACGTAGAAGCAAAAGGC [A41T T45A] | 0.741
21 | GAGACCGCAACTGAAAAGTTGTTATCACTTGTCGTAGCACACTTTGGATGGGTTGAAGTTCTGCACGTAGAAGCAAAAGGC [A37G G38C] | 0.828
22 | GAGACCGCAACTGAAAAGTTGTTATCACTTGCCGTAACACACTTTGGATGGGTTGAAGTTCTGCACGTAGAAGCAAAAGGC [T32C G38C] | 0.777
23 | GAGACCGCAACTGAAAAGTTGTTATCACTTGTCGTAAGACGCTTTGGATGGGTTGAAGTTCTGCACGTAGAAGCAAAAGGC [A41G] | 0.802
24 | GAGACCGCAACTGAAAAGTTGTTATCACTTAGCGTAAGACACTTTGGATGGGTTGAAGTTCTGCACGTAGAAGCAAAAGGC [G31A T32G] | 0.837
25 | GAGACCGCAACTGAAAAGTTGTTATCACGTGTCGTAAGACACTTTGGATTGGTTGAAGTTCTGCACGTAGAAGCAAAAGGC [T29G G50T] | 0.683
26 | GAGACCGCAACTGAAAAGTTGTTATCACTTGTAGTAAGACACTTTGGATGGGTTGTAGTTCTGCACGTAGAAGCAAAAGGC [C33A A56T] | 0.837
27 | GAGACCGCAACTGAAAAGTTGTTATCACTTATCCTAAGACACTTTGGATGGGTTGAAGTTCTGCACGTAGAAGCAAAAGGC [G31A G34C] | 0.769
28 | GAGACCGCAACTGAAAAGTTGTAATCACTTGTCGTGAGACACTTTGGATGGGTTGAAGTTCTGCACGTAGAAGCAAAAGGC [T23A A36G] | 0.847
29 | GAGACCGCAACTGAAAAGTTGTAATCACTTGTCGTAAGACTCTTTGGATGGGTTGAAGTTCTGCACGTAGAAGCAAAAGGC [T23A A41T] | 0.807
30 | GAGACCGCAACTGAAAAGTTGTTATCACTTGTCGTAAGAAGCTTTGGATGGGTTGAAGTTCTGCACGTAGAAGCAAAAGGC [C40A A41G] | 0.766
31 | GAGACCGCAACTGAAAAGTTGTTATCACTTATCGTAAGACACTATGGATGGGTTGAAGTTCTGCACGTAGAAGCAAAAGGC [G31A T44A] | 0.818
32 | GAGACCGCAACTGAAAAGTTGTTATCACTTGTCGTATGACACTTTGGTTGGGTTGAAGTTCTGCACGTAGAAGCAAAAGGC [A37T A48T] | 0.675
33 | GAGACCGCAACTGAAAAGTTGTTATCACTTGTCGTAAGACACTTAGGTTGGGTTGAAGTTCTGCACGTAGAAGCAAAAGGC [T45A A48T] | 0.0749
34 | GAGACCGCAACTGAAAAGTTGTTATCACCTGTCGTAAGACACCTTGGATGGGTTGAAGTTCTGCACGTAGAAGCAAAAGGC [T29C T43C] | 0.802
